Measured values taken from IntAct's records for PubMed 10601328.

B1: Receptor-type tyrosine-protein phosphatase R (Homo sapiens), Q15256 (parent)
chain: MRRAVCFPALCLLLNLHAAGCFSGNNDHFLAINQKKSGKPVFIYKHSQDIEKSLDIAPQKIYRHSYHSSSEAQVSKRHQIVNSAFPRPAYDPSLNLLAMDGQDLEVENLPIPAANVIVVTLQMDVNKLNITLLRIFRQGVAAALGLLPQQVHINRLIGKKNSIELFVSPINRKTGISDALPSEEVLRSLNINVLHQSLSQFGITEVSPEKNVLQGQHEADKIWSKEGFYAVVIFLSIFVIIVTCLMILYRLKERFQLSLRQDKEKNQEIHLSPITLQPALSEAKTVHSMVQPEQAPKVLNVVVDPQGRGAPEIKATTATSVCPSPFKMKPIGLQERRGSNVSLTLDMSSLGNIEPFVSIPTPREKVAMEYLQSASRILTRSQLRDVVASSHLLQSEFMEIPMNFVDPKEIDIPRHGTKNRYKTILPNPLSRVCLRPKNVTDSLSTYINANYIRGYSGKEKAFIATQGPMINTVDDFWQMVWQEDSPVIVMITKLKEKNEKCVLYWPEKRGIYGKVEVLVISVNECDNYTIRNLVLKQGSHTQHVKHYWYTSWPDHKTPDSAQPLLQLMLDVEEDRLASQGRGPVVVHCSAGIGRTGCFIATSIGCQQLKEEGVVDALSIVCQLRMDRGGMVQTSEQYEFVHHALCLYESRLSAETVQ

Variants of: B1
Conditions: with mk14_human MAPK14, Q16539
Sequence of mk14_human MAPK14, Q16539 (Q16539 whole entry): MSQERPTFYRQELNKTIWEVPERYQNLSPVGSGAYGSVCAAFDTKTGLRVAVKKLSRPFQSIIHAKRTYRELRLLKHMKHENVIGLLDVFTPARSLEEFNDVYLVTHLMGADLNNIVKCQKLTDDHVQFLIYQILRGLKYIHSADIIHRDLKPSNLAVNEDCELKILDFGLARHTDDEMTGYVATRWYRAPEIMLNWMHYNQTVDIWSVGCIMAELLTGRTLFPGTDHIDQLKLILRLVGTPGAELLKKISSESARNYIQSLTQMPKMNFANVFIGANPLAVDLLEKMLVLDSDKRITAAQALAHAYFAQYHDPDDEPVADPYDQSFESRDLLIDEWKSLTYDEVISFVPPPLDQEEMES

Q: With S339E as the variant, how does the “effect of a mutation on the interaction” value read?
A: disrupting interaction
